Drawing on US20190194299A1, this text covers Kd and EC50 for two substances.

Test [1] deals with S1(349-590)-hFc (MERS-CoV; human) (UniProt K9N5Q8). Kind of test: BLI (Octet), wild type RBD-hFc.
The target of test [2] is Human DPP4 on stable 293T cells (293T-hDPP4) (human) (UniProt P27487).

What is called Kd is the equilibrium constant for the complex coming apart. Read a low Kd as a tighter complex. Regarding “Recombinant soluble human DPP4 (from UniProt P27487 29-766) (receptor)”, the equilibrium dissociation constant (Kd) in test [1] turned out to be 21.4 nM.
By EC50 is commonly meant the midpoint of the concentration-response curve. A lower EC50 goes with an effect from little substance. “S1(349-590)-hFc (from UniProt K9N5Q8 349-590) (Fc fusion)” returned an EC50 in test [2] of 0.015 µg/mL.
